Assay [1] addresses T1, cynomolgus IgE (recombinant chimaeric D12 variable region and cynomolgus IgE constant region) (cynomolgus monkey (constant region); …).
T1 construct: The entries may hold a leader peptide; also called cyno IgE; cynomolgus monkey IgE
Nature of the assay: HTRF competition; scFv titrated vs Eu-cryptate cynomolgus IgE binding to human FcεRI-Fc; geomean. (In general: Time-resolved FRET reads energy transfer from a long-lived donor to a nearby acceptor.)

Assay [2] addresses T1, cynomolgus IgE (recombinant chimaeric …). The assay can be described thus: cell-based or functional assay.
Assay [3] has the same target. Nature of the assay: SPR BIAcore; IgG captured on protein G', IgE analyte, bivalent analyte fit; geomean.

Positions count from the first letter of the chain named.

T1 sequence (heavy, as listed by the source limits assumed, chain 1 of 2): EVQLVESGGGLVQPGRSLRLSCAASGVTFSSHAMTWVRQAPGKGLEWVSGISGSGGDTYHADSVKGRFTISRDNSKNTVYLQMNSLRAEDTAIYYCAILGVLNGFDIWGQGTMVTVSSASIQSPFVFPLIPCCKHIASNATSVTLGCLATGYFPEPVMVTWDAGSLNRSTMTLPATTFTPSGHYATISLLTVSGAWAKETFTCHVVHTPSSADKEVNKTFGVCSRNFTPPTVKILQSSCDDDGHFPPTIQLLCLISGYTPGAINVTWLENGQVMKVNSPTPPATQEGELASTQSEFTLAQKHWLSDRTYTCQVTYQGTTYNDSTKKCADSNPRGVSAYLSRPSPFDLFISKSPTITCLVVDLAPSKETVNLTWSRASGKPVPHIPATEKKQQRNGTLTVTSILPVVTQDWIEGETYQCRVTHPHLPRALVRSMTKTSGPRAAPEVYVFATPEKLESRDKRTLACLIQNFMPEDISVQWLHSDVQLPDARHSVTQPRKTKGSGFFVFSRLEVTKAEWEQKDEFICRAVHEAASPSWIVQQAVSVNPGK
T1 sequence (light, as listed by the source limits assumed, chain 2 of 2): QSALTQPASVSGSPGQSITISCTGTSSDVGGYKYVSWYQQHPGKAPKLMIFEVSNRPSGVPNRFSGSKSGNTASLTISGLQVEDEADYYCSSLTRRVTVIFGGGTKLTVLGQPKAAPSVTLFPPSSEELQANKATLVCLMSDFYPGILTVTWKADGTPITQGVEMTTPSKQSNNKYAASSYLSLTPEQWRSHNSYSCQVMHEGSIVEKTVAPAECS

B1: Antibody 2 scFv (scFv, V domains shown)
VH: QVQLVQSGAEVKKPGATVKLSCKVYGYIFTDYNIYWVRQAPGKGLEWMGLIDPDNGETFYAEKFQGRATMTADTSSDRAYMELTSLTFEDTATYYCATVSLRSAKGGYDYWGRGTLVTVSS
VL: QSVLTQPPSVSGAPGQRVTISCTGSSSNIGAGYDVHWYQQLPGTAPKLLIYDNFNRPSGVPDRFSGSKSGTSASLAIIGLQTEDEADYYCQSYDSSLSGSLFGTGTKLTVL
notes: Purified scFv
One may read the IC50 as the midpoint of a concentration-inhibition curve. As to B1, in assay [1], the IC50 was 317 nM.

B2: Antibody 18 IgG (antibody, V domains shown)
VH: B1 VH with S100L
VL: B1 VL with S96H, S98Q, G99L, L101P
Regarding B2, in assay [2], the “RBL-ER51 calcium signalling IC50 (nM), Cynomolgus IgE, geomean” value (“RBL-ER51 calcium signalling IC50 (nM)” below) was determined as 2.97 nM.

B3: Antibody 18 scFv (scFv, V domains shown)
VH: B1 VH with S100L
VL: B1 VL with S96H, S98Q, G99L, L101P
notes: Purified scFv
As for B3, the IC50 in assay [1] worked out at 110 nM.

B4: Antibody 11 scFv (scFv, V domains shown)
VH: B1 VH with S100M, L101G, R102K, S103W, A104I
VL: B1 VL with S96P, L97T, S98L, G99T, L101P
notes: Purified scFv
In the case of B4, the IC50 in assay [1] worked out at 7 nM.

B5: Antibody 21 scFv (scFv, V domains shown)
VH: B1 VH with S100T, R102K
VL: B1 VL with L97S, S98Q, G99L, L101P
notes: Purified scFv
In the case of B5, the IC50 in assay [1] came to 65 nM.

B6: Antibody 28 scFv (scFv, V domains shown, not shown: small tags and cut ends)
VH: B1 VH with S100M, L101G, R102K, S103W, A104I
VL: B1 VL with L97S, S98L, G99H, L101P
notes: Purified scFv
For B6, the IC50 in assay [1] turned out to be 7 nM.

B7: Antibody 13 scFv (scFv, V domains shown)
VH: B1 VH with S100M, L101G, R102K, S103W, A104I
VL: B1 VL with S96N, L97I, S98L, G99Y, L101P
notes: Purified scFv
For the molecule B7, the IC50 in assay [1] amounted to 7 nM.

B8: Antibody 22 scFv (scFv, V domains shown)
VH: B1 VH with S100T, R102K
VL: B1 VL with L97G, S98G, G99Y, S100A, L101P
notes: Purified scFv
In the case of B8, in assay [1], the IC50 was determined as 68 nM.

B9: Antibody 27 scFv (scFv, V domains shown, not shown: small tags and cut ends)
VH: B1 VH with R102K, S103E
VL: B1 VL with S96P, L97T, S98Q, G99T, L101P
notes: Purified scFv
On to B9, for which, in assay [1], the IC50 stood at 117 nM.

B10: Antibody 12 scFv (scFv, V domains shown)
VH: B1 VH with S100M, L101G, R102K, S103W, A104I
VL: B1 VL with L97I, S98D, G99H, L101P
notes: Purified scFv
Turning to B10, the IC50 in assay [1] amounted to 7 nM.

B11: Antibody 6 scFv (scFv, V domains shown)
VH: B1 VH with S100M, L101G, R102K, S103W, A104I
VL: B1 VL with S96T, L97M, S98R, G99H, S100G, L101P
notes: Purified scFv
In the case of B11, the IC50 in assay [1] was determined as 11 nM.

B12: Antibody 24 scFv (scFv, V domains shown, not shown: small tags and cut ends)
VH: B1 VH with S100T, R102K, S103T
VL: B1 VL with S96R, L97N, S98G, G99Y, S100G, L101G
notes: Purified scFv
Regarding B12, the IC50 in assay [1] was found to be 111 nM.

B13: Antibody 12 IgG (antibody, V domains shown)
VH: B1 VH with S100M, L101G, R102K, S103W, A104I
VL: B1 VL with L97I, S98D, G99H, L101P
notes: Whole human IgG (section 1.4, IgG1)
As for B13, the Kd in assay [3] was determined as 230 nM. Also, the “RBL-ER51 calcium signalling IC50 (nM)” value in assay [2] came to 0.334 nM.

B14: Antibody 16 scFv (scFv, V domains shown)
VH: B1 VH with R102K
VL: B1 VL with S96R, L97H, S98H, G99H, S100A, L101P
notes: Purified scFv
In the case of B14, the IC50 in assay [1] was determined as 63 nM.

B15: Antibody 8 scFv (scFv, V domains shown)
VH: B1 VH with S100L, L101G, S103W, A104I
VL: B1 VL with S96P, L97T, S98H, G99T, L101P
notes: Purified scFv
Take B15: in assay [1], the IC50 came out at 12 nM.

B16: Antibody 5 IgG (antibody, V domains shown)
VH: B1 VH with S100M, L101G, R102K, S103W, A104I
VL: B1 VL with S96T, L97K, S98H, G99T, L101P
notes: as for B13
Regarding B16, the Kd in assay [3] turned out to be 7.9 nM. Further, the “RBL-ER51 calcium signalling IC50 (nM)” value in assay [2] stood at 0.181 nM.

B17: Antibody 7 scFv (scFv, V domains shown)
VH: B1 VH with S100T, R102K
VL: B1 VL with S96D, L97R, S98R, G99N, L101P
notes: Purified scFv
Turning to B17, the half-inhibitory concentration (IC50) in assay [1] is 186 nM.

B18: Antibody 25 scFv (scFv, V domains shown, not shown: small tags and cut ends)
VH: B1 VH with S100T, R102K
VL: B1 VL with S96N, L97H, S98K, G99T, L101P
notes: Purified scFv
For the molecule B18, the IC50 in assay [1] was found to be 86 nM.

B19: Antibody 5 scFv (scFv, V domains shown)
VH: B1 VH with S100M, L101G, R102K, S103W, A104I
VL: B1 VL with S96T, L97K, S98H, G99T, L101P
notes: Purified scFv
As for B19, the IC50 in assay [1] was found to be 6 nM.

B20: Antibody 4 IgG (antibody, V domains shown)
VH: B1 VH with S100M, L101G, R102K, S103W, A104I
VL: B1 VL with S96R, L97G, S98G, G99H, L101P
notes: as for B13
Consider B20, for which the Kd in assay [3] came out at 8 nM. The “RBL-ER51 calcium signalling IC50 (nM)” value in assay [2] is 0.151 nM.

B21: Antibody 6 IgG (antibody, V domains shown)
VH: B1 VH with S100M, L101G, R102K, S103W, A104I
VL: B1 VL with S96T, L97M, S98R, G99H, S100G, L101P
notes: as for B13
Regarding B21, in assay [3], the Kd was 3.7 nM. The “RBL-ER51 calcium signalling IC50 (nM)” value in assay [2] stood at 0.168 nM.

B22: Antibody 4 scFv (scFv, V domains shown)
VH: B1 VH with S100M, L101G, R102K, S103W, A104I
VL: B1 VL with S96R, L97G, S98G, G99H, L101P
notes: Purified scFv
On to B22, for which the IC50 in assay [1] was determined as 5 nM.

B23: Antibody 17 scFv (scFv, V domains shown)
VH: B1 VH with S100T, R102K
VL: B1 VL with S96Q, L97S, G99T, L101P
notes: Purified scFv
Consider B23, for which the IC50 in assay [1] stood at 109 nM.

B24: Antibody 26 scFv (scFv, V domains shown, not shown: small tags and cut ends)
VH: B1 VH with R102K, S103E
VL: B1 VL with S96A, L97S, S98R, G99H, S100A, L101P
notes: Purified scFv
Consider B24, for which the half-maximal inhibitory concentration (IC50) in assay [1] is 121 nM.

B25: Antibody 23 scFv (scFv, V domains shown, not shown: small tags and cut ends)
VH: B1 VH with S100M, L101G, R102K, S103W, A104I
VL: B1 VL with S96H, L97H, S98L, G99Y, L101S
notes: Purified scFv
As to B25, in assay [1], the IC50 was 6 nM.

B26: Antibody 15 scFv (scFv, V domains shown)
VH: B1 VH with S100T, R102K, S103T
VL: B1 VL with S96H, L97K, S98G, G99Y, S100G, L101G
notes: Purified scFv
For the molecule B26, the IC50 in assay [1] is 172 nM.

B27: Antibody 3 scFv (scFv, V domains shown)
VH: B1 VH with S100M, L101G, R102K, S103W, A104I
VL: B1 VL with S96T, L97F, S98N, G99H, S100A, L101P
notes: Purified scFv
For B27, the IC50 in assay [1] was found to be 18 nM.

B28: Antibody 10 scFv (scFv, V domains shown)
VH: B1 VH with S103A
VL: B1 VL with S96E, L97Q, S98E, G99L, S100A, L101P
notes: Purified scFv
As to B28, the 50% inhibitory concentration (IC50) in assay [1] was 116 nM.

B29: Antibody 9 scFv (scFv, V domains shown)
VH: B1 VH with S100T
VL: B1 VL with S96P, L97S, G99T, L101P
notes: Purified scFv
B29: the IC50 in assay [1] stood at 132 nM.

B30: Antibody 8 IgG (antibody, V domains shown)
VH: B1 VH with S100L, L101G, S103W, A104I
VL: B1 VL with S96P, L97T, S98H, G99T, L101P
notes: as for B13
Take B30: the Kd in assay [3] was 6.3 nM. Besides, the “RBL-ER51 calcium signalling IC50 (nM)” value in assay [2] is 0.188 nM.

B31: Antibody 14 scFv (scFv, V domains shown)
VH: B1 VH with S100M, L101G, R102K, S103W, A104I
VL: B1 VL with S96H, L97H, S98R, G99H, L101P
notes: Purified scFv
Turning to B31, the IC50 in assay [1] stood at 15 nM.

These data come from patent US20140127212A1 (AstraZeneca / MedImmune, published 2014).
